The target in this data set is Bovine serum albumin (BSA) (Bos taurus, UniProt P02769 P02769:25-607). In words: SPR; 400 nM BSA; minimal effect on response of aptamer sensor. Conditions: tags: Sigma Aldrich. On the procedure: Non-coated (i.e., no gold) SensiQ base sensors were custom modified with the developed gold based SPR sensing surfaces. Specifically, freshly prepared aptamer-immobilized gold substrates were coupled to the stripped sensors with index matching optical oil. This was followed by then loading of 100 μL 1 M ethanolamine (EA) at a flow rate of 20 μL/min to block the non-occupied MPA sites activated by the EDC/NHS, followed by an injection of 100 μL of 100 mM phosphoric acid (PPA) at 50 μL/min to remove the non-specific binding. The running buffer was 0.1 M pH 7.2 PBS. The sensor was first normalized with the buffer for 10 min, then the thrombin sample (25 μL) at concentrations of 5 nM, 25 nM, 50 nM, 250 nM 500 nM, 1000 nM, 2000 nM were loaded at 5 μL/min. Samples with BSA were all prepared with 400 nM BSA. All data was recorded at 290 s, 300 s, and 310 s after the sample injection and averaged. Sensor regeneration was performed by the injection of 100 μL PPA at 50 μL/min followed by washing with the running buffer.
Adding BSA to the sample had minimal effect on the SPR response for the aptamer modified sensors, indicating a good selectivity of the sensor toward thrombin. This is in contrast to the bare Au sensor, which experienced a significant change between the thrombin samples with, and without, BSA. […]

Sequence of Bovine serum albumin (BSA) (P02769 25-607, one chain of several): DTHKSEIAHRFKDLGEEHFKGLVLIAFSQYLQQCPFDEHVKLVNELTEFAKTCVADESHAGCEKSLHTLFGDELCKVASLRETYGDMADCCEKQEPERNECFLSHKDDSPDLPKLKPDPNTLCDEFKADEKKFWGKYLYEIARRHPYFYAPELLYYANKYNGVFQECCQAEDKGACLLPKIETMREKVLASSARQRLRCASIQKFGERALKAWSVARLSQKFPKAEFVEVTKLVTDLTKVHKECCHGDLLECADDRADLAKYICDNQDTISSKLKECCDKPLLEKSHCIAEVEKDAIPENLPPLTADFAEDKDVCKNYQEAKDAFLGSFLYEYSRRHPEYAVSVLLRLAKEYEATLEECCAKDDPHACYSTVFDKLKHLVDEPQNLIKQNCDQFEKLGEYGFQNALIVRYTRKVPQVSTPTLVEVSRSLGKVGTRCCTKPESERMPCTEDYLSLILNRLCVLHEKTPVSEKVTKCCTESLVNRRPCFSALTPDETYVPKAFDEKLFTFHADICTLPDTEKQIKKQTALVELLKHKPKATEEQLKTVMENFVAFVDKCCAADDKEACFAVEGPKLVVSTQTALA

On to GGTTGGTGTGGTTGG (ssDNA, 5'-NH2-(CH2)6) [APT1 (15-mer thrombin aptamer)], for which the binding result was “no binding”. Then CTATCAGTCCGTGGTAGGGCAGGTTGGGGTGACT (ssDNA, 5'-NH2-(CH2)6) [APT2 (34-mer thrombin aptamer)], with “no binding”.

The values above are taken from patent US20150024957, “Methods and Devices for Detection and Measurement of Analytes” (THE UNIVERSITY OF TOLEDO, published 2015).
